# Like-named read-outs stand apart in the source and are kept apart here. Numbered stars: 1 amine (or outer) side, 2 acyl side, 3 side chain; on linkers, the order of the positions; unused ones are H or OH. Bridge positions count the residues as written; N and C are the ends. Side chains are listed from the residue outwards. Ends that are not written are not given here. * marks the point of attachment. C20 diacid = O=C(O)CCCCCCCCCCCCCCCCCCC(=O)*; γGlu = O=C(O)[C@H](CCC(=O)[*:2])N[*:1]
# T1: human amylin receptor (amylin 3(a) receptor: human calcitonin receptor plus RAMP-3) (human, UniProt P30988 25-474; O60896 24-148, limits assumed)
# T1 sequence (looked up) 1: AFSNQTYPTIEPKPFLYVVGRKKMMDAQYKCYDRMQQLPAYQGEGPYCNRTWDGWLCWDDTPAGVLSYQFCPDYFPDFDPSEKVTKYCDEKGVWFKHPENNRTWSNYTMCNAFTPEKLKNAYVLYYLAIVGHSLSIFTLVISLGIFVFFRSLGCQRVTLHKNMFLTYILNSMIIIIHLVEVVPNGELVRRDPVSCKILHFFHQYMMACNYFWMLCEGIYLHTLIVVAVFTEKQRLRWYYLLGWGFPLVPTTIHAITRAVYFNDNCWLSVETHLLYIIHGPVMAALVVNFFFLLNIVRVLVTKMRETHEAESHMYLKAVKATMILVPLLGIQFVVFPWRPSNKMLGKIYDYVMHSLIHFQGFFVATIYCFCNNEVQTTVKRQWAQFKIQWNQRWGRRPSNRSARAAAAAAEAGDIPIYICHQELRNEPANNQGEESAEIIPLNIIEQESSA
# T1 sequence (looked up) 2: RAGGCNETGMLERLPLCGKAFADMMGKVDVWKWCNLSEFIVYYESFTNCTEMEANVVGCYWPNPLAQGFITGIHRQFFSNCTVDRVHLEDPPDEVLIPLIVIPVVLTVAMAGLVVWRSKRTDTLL
# T2: human calcitonin receptor (human, UniProt P30988 25-474)
# T2 sequence (looked up): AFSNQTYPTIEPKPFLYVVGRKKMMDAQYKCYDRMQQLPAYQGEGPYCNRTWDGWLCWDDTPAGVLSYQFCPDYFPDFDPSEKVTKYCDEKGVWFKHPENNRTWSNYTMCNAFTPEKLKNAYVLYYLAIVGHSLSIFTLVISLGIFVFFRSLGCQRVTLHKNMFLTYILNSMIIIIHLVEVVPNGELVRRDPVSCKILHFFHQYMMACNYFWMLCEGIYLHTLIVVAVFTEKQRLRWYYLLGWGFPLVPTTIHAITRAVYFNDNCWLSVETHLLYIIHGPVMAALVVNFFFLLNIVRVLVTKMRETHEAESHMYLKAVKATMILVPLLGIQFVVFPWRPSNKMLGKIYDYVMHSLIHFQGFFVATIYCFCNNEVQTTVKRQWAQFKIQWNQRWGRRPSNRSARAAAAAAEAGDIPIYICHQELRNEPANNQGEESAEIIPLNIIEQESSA
# T3: human calcitonin receptor (human, UniProt P30988 25-474)
# T3 sequence (looked up): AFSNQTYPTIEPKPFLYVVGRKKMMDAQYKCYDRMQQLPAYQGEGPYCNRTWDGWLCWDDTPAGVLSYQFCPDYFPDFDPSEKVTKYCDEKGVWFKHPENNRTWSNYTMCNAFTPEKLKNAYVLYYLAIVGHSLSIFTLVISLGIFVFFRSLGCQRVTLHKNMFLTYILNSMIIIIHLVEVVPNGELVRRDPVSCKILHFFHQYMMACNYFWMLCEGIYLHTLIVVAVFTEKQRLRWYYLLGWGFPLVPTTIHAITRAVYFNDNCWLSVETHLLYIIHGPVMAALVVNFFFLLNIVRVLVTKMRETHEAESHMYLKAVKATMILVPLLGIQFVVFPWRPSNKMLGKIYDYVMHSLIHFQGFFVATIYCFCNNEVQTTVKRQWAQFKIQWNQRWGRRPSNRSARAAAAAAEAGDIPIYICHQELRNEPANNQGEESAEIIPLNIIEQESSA
# B1: N^α1-[(4S)-4-carboxy-4-(19-carboxynonadecanoylamino)butanoyl]-[Arg17,Pro21,Pro27,Pro31,Glu35]-h-amylin (peptide)
# peptide: {C20 diacid-γGlu}-KCNTATCATQRLANFLRHSSPNFGAIPSSTPVGSETY-NH2
# modifications: disulfide 2-7
# SMILES: CC[C@H](C)[C@H](NC(=O)[C@H](C)NC(=O)CNC(=O)[C@H](Cc1ccccc1)NC(=O)[C@H](CC(N)=O)NC(=O)[C@@H]1CCCN1C(=O)[C@H](CO)NC(=O)[C@H](CO)NC(=O)[C@H](Cc1c[nH]cn1)NC(=O)[C@H](CCCNC(=N)N)NC(=O)[C@H](CC(C)C)NC(=O)[C@H](Cc1ccccc1)NC(=O)[C@H](CC(N)=O)NC(=O)[C@H](C)NC(=O)[C@H](CC(C)C)NC(=O)[C@H](CCCNC(=N)N)NC(=O)[C@H](CCC(N)=O)NC(=O)[C@@H](NC(=O)[C@H](C)NC(=O)[C@@H]1CSSC[C@H](NC(=O)[C@H](CCCCN)NC(=O)CC[C@H](NC(=O)CCCCCCCCCCCCCCCCCCC(=O)O)C(=O)O)C(=O)N[C@@H](CC(N)=O)C(=O)N[C@@H]([C@@H](C)O)C(=O)N[C@@H](C)C(=O)N[C@@H]([C@@H](C)O)C(=O)N1)[C@@H](C)O)C(=O)N1CCC[C@H]1C(=O)N[C@@H](CO)C(=O)N[C@@H](CO)C(=O)N[C@H](C(=O)N1CCC[C@H]1C(=O)N[C@H](C(=O)NCC(=O)N[C@@H](CO)C(=O)N[C@@H](CCC(=O)O)C(=O)N[C@H](C(=O)N[C@@H](Cc1ccc(O)cc1)C(N)=O)[C@@H](C)O)C(C)C)[C@@H](C)O
# notes: Synthetic acylated analogue of human amylin; also called compound 28
# B2: N^ε1-[(4S)-4-carboxy-4-[[(4S)-4-carboxy-4-(19-carboxynonadecanoylamino)butanoyl]amino]butanoyl]-[Asp14,Arg17,Pro21,Pro27,Arg35]-h-amylin (peptide)
# peptide: K([γGlu-γGlu-C20 diacid])CNTATCATQRLADFLRHSSPNFGAIPSSTNVGSRTY-NH2
# modifications: disulfide 2-7; N-terminus assumed
# SMILES: CC[C@H](C)[C@H](NC(=O)[C@H](C)NC(=O)CNC(=O)[C@H](Cc1ccccc1)NC(=O)[C@H](CC(N)=O)NC(=O)[C@@H]1CCCN1C(=O)[C@H](CO)NC(=O)[C@H](CO)NC(=O)[C@H](Cc1c[nH]cn1)NC(=O)[C@H](CCCNC(=N)N)NC(=O)[C@H](CC(C)C)NC(=O)[C@H](Cc1ccccc1)NC(=O)[C@H](CC(=O)O)NC(=O)[C@H](C)NC(=O)[C@H](CC(C)C)NC(=O)[C@H](CCCNC(=N)N)NC(=O)[C@H](CCC(N)=O)NC(=O)[C@@H](NC(=O)[C@H](C)NC(=O)[C@@H]1CSSC[C@H](NC(=O)[C@@H](N)CCCCNC(=O)CC[C@H](NC(=O)CC[C@H](NC(=O)CCCCCCCCCCCCCCCCCCC(=O)O)C(=O)O)C(=O)O)C(=O)N[C@@H](CC(N)=O)C(=O)N[C@@H]([C@@H](C)O)C(=O)N[C@@H](C)C(=O)N[C@@H]([C@@H](C)O)C(=O)N1)[C@@H](C)O)C(=O)N1CCC[C@H]1C(=O)N[C@@H](CO)C(=O)N[C@@H](CO)C(=O)N[C@H](C(=O)N[C@@H](CC(N)=O)C(=O)N[C@H](C(=O)NCC(=O)N[C@@H](CO)C(=O)N[C@@H](CCCNC(=N)N)C(=O)N[C@H](C(=O)N[C@@H](Cc1ccc(O)cc1)C(N)=O)[C@@H](C)O)C(C)C)[C@@H](C)O
# notes: Synthetic acylated analogue of human amylin; also called compound 52
# B3: N^α1-[(4S)-4-carboxy-4-(19-carboxynonadecanoylamino)butanoyl]-[Arg17,Pro21,Pro27,Lys35]-h-amylin (peptide)
# peptide: KCNTATCATQRLANFLRHSSPNFGAIPSSTNVGSKTY
# modifications: C20 diacid-gGlu on the alpha amino group of the N-terminal residue; disulfide bridge Cys2-Cys7; C-terminal amide
# notes: Synthetic acylated analogue of human amylin; also called compound 34
# B4: N^α1-[2-[2-[2-[[2-[2-[2-[[(4S)-4-carboxy-4-(19-carboxynonadecanoylamino)butanoyl]amino]ethoxy]ethoxy]acetyl]amino]ethoxy]ethoxy]acetyl]-[Glu14,Arg17,Pro21,Pro27 … (peptide)
# peptide: KCNTATCATQRLAEFLRHSSPNFGAIPSSTNVGSNTY
# modifications: C20 diacid-gGlu-2xOEG on the alpha amino group of the N-terminal residue; disulfide bridge Cys2-Cys7; C-terminal amide
# notes: Synthetic acylated analogue of human amylin; also called compound 19
# B5: N^α1-[(4S)-4-carboxy-4-(19-carboxynonadecanoylamino)butanoyl]-[Arg17,Pro21,Pro27,His34]-h-amylin (peptide)
# peptide: KCNTATCATQRLANFLRHSSPNFGAIPSSTNVGHNTY
# modifications: C20 diacid-gGlu on the alpha amino group of the N-terminal residue; disulfide bridge Cys2-Cys7; C-terminal amide
# notes: Synthetic acylated analogue of human amylin; also called compound 40
# B6: N^ε1-[(4S)-4-carboxy-4-(19-carboxynonadecanoylamino)butanoyl]-[Arg17,Pro21,Pro27]-h-amylin (peptide)
# peptide: K([γGlu-C20 diacid])CNTATCATQRLANFLRHSSPNFGAIPSSTNVGSNTY-NH2
# modifications: disulfide 2-7; N-terminus assumed
# SMILES: CC[C@H](C)[C@H](NC(=O)[C@H](C)NC(=O)CNC(=O)[C@H](Cc1ccccc1)NC(=O)[C@H](CC(N)=O)NC(=O)[C@@H]1CCCN1C(=O)[C@H](CO)NC(=O)[C@H](CO)NC(=O)[C@H](Cc1c[nH]cn1)NC(=O)[C@H](CCCNC(=N)N)NC(=O)[C@H](CC(C)C)NC(=O)[C@H](Cc1ccccc1)NC(=O)[C@H](CC(N)=O)NC(=O)[C@H](C)NC(=O)[C@H](CC(C)C)NC(=O)[C@H](CCCNC(=N)N)NC(=O)[C@H](CCC(N)=O)NC(=O)[C@@H](NC(=O)[C@H](C)NC(=O)[C@@H]1CSSC[C@H](NC(=O)[C@@H](N)CCCCNC(=O)CC[C@H](NC(=O)CCCCCCCCCCCCCCCCCCC(=O)O)C(=O)O)C(=O)N[C@@H](CC(N)=O)C(=O)N[C@@H]([C@@H](C)O)C(=O)N[C@@H](C)C(=O)N[C@@H]([C@@H](C)O)C(=O)N1)[C@@H](C)O)C(=O)N1CCC[C@H]1C(=O)N[C@@H](CO)C(=O)N[C@@H](CO)C(=O)N[C@H](C(=O)N[C@@H](CC(N)=O)C(=O)N[C@H](C(=O)NCC(=O)N[C@@H](CO)C(=O)N[C@@H](CC(N)=O)C(=O)N[C@H](C(=O)N[C@@H](Cc1ccc(O)cc1)C(N)=O)[C@@H](C)O)C(C)C)[C@@H](C)O
# notes: h-amylin derivative; disulfide bridge and C-terminal amide as told for human amylin; also called compound 48
# Experiments:
# Experiment in all cases: cell-based or functional assay
# [1] = molecular target: T1, human amylin receptor (amylin 3(a) …)
# [2] = molecular target: T2, human calcitonin receptor
# [3] = molecular target: T3, human calcitonin receptor; remark: listed apart in the source
Binder,Ratio hCT/hAmylin funct. [1] [ratio],hAmylin-R funct. EC50 [1] [nM],hCTR funct. EC50 [2] [nM],hCTR funct. EC50 [3] [nM]
B1,9.2,0.22,2.03,
B2,,,14.1,
B3,8.4,0.313,2.62,
B4,17.4,0.307,5.32,
B5,16.4,0.164,2.68,
B6,,,,1.97

# Source: patent publication US20140087995A1 (published 2014)
